The source of these data is doi:10.1101/2022.03.26.485915 (bioRxiv, 2022).

The data set concerns the molecule itself. The data set can be described thus: in-vitro amyloid aggregation.

B1: Envelope domain III (EDIII) protein of ZIKV (domain or fragment, Zika virus)
chain: MGVSYSLCTAAFTFTKIPAETLHGTVTVEVQYAGTDGPCKVPAQMAVDMQTLTPVGRLITANPVITESTENSKMMLELDPPFGDSYIVIGVGEKKITHHWHRSGSTIGKGQFYLNELE
On to B1, for which the binding result was “binds”.
